Experimental data from the DeepSol protein solubility set.

Test: soluble on expression in E. coli; label from the status in PepcDB or PDB records

| Sequence | soluble on expression in E. coli |
| --- | --- |
| MGHHHHHHSHMANSAGSMANSAGSLPTTTIGSFPQSREVRKYRADWKNKRITDEAYETFLKNEIARWIKIQEDIGLDVLVHGEFERNDMVEFFGEKLQGFLVTKFGWVQSYGSRAVKPPIIYGDVKWTAPLTVDETVYAQSLTDKPVKGMLTGPVTILNWSFERVDLPRKVVQDQIALAINEEVLALEAAGIKVIQVDEPALREGLPLRSEYHEQYLKDAVLSFKLATSSVRDETQIHTHMCYSQFGQIIHAIHDLDADVISIETSRSHGDLIKDFEDINYDLGIGLGVYDIHSPRIPTKEEITTAINRSLQQIDRSLFWVNPDCGLKTRKEEEVKDALTVLVNAVKA | not soluble |
| MAVYRNVQVNFWQDDFVLDLTPEERYFYVYLLTCSKTTQCGIFPFPKRLAEMETGYNRETVDKLVQRFVDYGKILYDADTRELFVLNWLRYNPVTNTNVEKCVLRELKSVKNKEFVHMFLQKCVEEELNVPMLLAHFGMPSDLAVDDVEPVCEETEAEEEVIEEETGSRVFSFYEQHFGSLSPFAVEELSAWMEDLSEELVLKALQIAFENNKRTVAYVKGILRGWHGKGFTKVCEVEADTAKFRKKESSVSTGETEEFLARCEEWEKNAPSEEELQRFLAERGWRP | not soluble |
| MSLEAIRIGEINSYSQIPAFTLPYRNGWQLAVEQINAAGGLLGGRPLEVISRDDGGDPGKAVTAAQELLTRHGVHALAGTFLSHVGLAVSDFARQRKVLFMASEPLTDALTWEKGNRYTYRLRPSTYMQAAMLAAEAAKLPITRWATIAPNYEYGQSAVARFKELLLAARPEVTFVAEQWPALYKLDAGPTVQALQQAEPEGLFNVLFGADLPKFVREGRVRGLFAGRQVVSMLTGEPEYLNPLKDEAPEGWIVTGYPWYDIDTAPHRAFVEAYRARWKEDPFVGSLVGYNTLTAMAVAFEKAGGTESETLVETLKDMAFSTPMGPLSFRASDHQSTMGAWVGRTALRDGKGVMVDWRYVDGGSVLPPPEVVSAWRPAGEGHHHHHH | soluble |
| MATASQRNFLAVPDWLDAAILISDEQTSDIFDLAWDMDDFWVFGYGSLMWNPGFAFEERQQARLHGYRRSLCISSNFYRGTEEKPGLVLGLERGGSCLGVAFRVRGKDHDPVMAYLRERELVTNVYKERVVSIALANGRRGSAVTYVADPAHEQYIGGLGVAESAVIIAAATGRSGPNTDYLFNTVQHLQEMGIRDSLLESIAASVGTLSAQSAVVSLPLEHHHHHH | not soluble |
| MKGRTMNKPFITQAQLALYKYQPSSKYFGQSMAVIAQSEFVEFAKINKSENVIDCFSFFWNRRIKHDIWLISFSDNSEMVIKESLKDGHKIYKFEFCEIVDNCNFDDVFV | not soluble |
| MGSDKIHHHHHHMTTLNAIFRPFIQPHRYKIAKGGRGSGKSWAIARLLVEIARRGTYRFLCAREFQASMADSVIQLIADTIQREGYLKEFEIQKAYIRHLAATDSLFMFYGIKNNVTKIKSLEGIDIAWVEEAEAVTKESWDILIPTIRKPGSEIWVSFNSKNILDDTYQRFVVNPPDDICLLTVHYTDNPHFPEVLRLEMEECKCKDYDLYLHIWEGQPVADSDLAIIKPLWIAAAVDAHMTLGFDAVGEKRLGFDVADEGKTATPCALCRAQSC | not soluble |
| MNQIAIQETIQRLINQQVVPGVAWGTITEDSLSEQYTGFLGNTGPFARQKISSASLYDLASLTKVIGTTNRMLQLIDTNQLTFSTTVGEILPDYQGLSCSIGELLLHQSGLPADVVDKKNVTKKSLQEIILTHSLSERGKTTYSDLGYYLLGEIIQVLDRCSLEESFQTYVFQPMNLQHTSFTVSDFAQAVPTEITKQRGVIQGVVHDSKAYQLKAPIGSAGLFATLPDLLTFVQCFMNNRYPSGKPLFSEKMFTALWSMNQGGRTFGWEVKKTQAGADYLYHTGFTGTAIGMKKETKEALILLTNRIHPTREERGFLKARTKIYQQYF | not soluble |
| MGHHHHHHSHMNSIVNGLYTFMSTTVVPAVTEQAANLVGGASALAEGATQALTQISQTALEWGSGSEDATASSEVFSWEQQGAAAASSDLQEDKKETTEDVHQEAIGASSPNTSIEWEVIHENPDETGPIRHNQFEMVQNNYEWMKNSK | not soluble |
| MIQCEECLCWQHSVCMGLLEESIPEQYICYICRDPPGQRWSAKYRYDKEWLNNGRMCGLSFFKENYSHLNAKKIVSTHHLLADVYGVTEVLHGLQLKIGILKNKHHPDLHLWACSGKRKDQDQIIAGVEKKIAQDTVNREEKKYVQNHKEPPRLPLKMEGTYITSEHSYQKPQSFGQDCKSLADPGSSDDDDVSSLEEEQEFHMRSKNSLQYSAKEHGMPEKNPAEGNTVFVYNDKKGTEDPGDSHLQWQLNLLTHIENVQNEVTSRMDLIEKEVDVLESWLDFTGELEPPDPLARLPQLKRHIKQLLIDMGKVQQIATLCSV | soluble |
| GNSKKHNLILIGAPGSGKGTQCEFIKKEYGLAHLSTGDMLREAIKNGTKIGLEAKSIIESGNFVGDEIVLGLVKEKFDLGVCVNGFVLDGFPRTIPQAEGLAKILSEIGDSLTSVIYFEIDDSEIIERISGRCTHPASGRIYHVKYNPPKQPGIDDVTGEPLVWRDDDNAEAVKVRLDVFHKQTAPLVKFYEDLGILKRVNAKLPPKEVTEQIKKIL | soluble |
| MPELKVVVSIKQVPDVDELRIDPVTNNLVREGVPAVINPPDLHAIEEAVRLKERYGAKTIVITMGPPQADSALREALAMGIDEAYLISDRAMAGADTWATSYTISKAVQKLGGADLILFGRRAVDGETEQVGPQTGKWLGLPVIGYVSEIKSLEKDKIVVTRTTEFDEEVIEAPVPVVLTILEVANKPRQPDILSLIKAKTAKVTVWNKDDIKAEPNKIGLAGSPTKVIKVQPPPKTRKAEIIDGKKDVEKAAKWFLDKIFESLKE | not soluble |
| MILRTSEETISTVQEKQQNISPLVRERGPQRVAAHITGTRGRSNTLSSPNSKNEKALGRKINSWESSRSGHSFLSNLHLRNGELVIHEKGFYYIYSQTYFRFQEEIKENTKNDKQMVQYIYKYTSYPAPILLMKSARNSCWSKDAEYGLYSIYQGGIFELKENDRIFVSVTNEHLIDMDHEASFFGAFLVG | soluble |
| MASSTTFVIVGGGLAGAKAVEALRRSDFGGRIILFGDEEHLPYDRPPLSKEFLAGKKSLSDFTIQTSDWYRDHDVDVRLGVRVSSLDRSAHTVELPDGAAVRYDKLLLATGSAPRRPPIPGSDAAGVHYLRSYNDAVALNSVLVQGSSLAVVGAGWIGLEVAASARQRGVDVTVVETAIQPLLAALGEAVGKVFADLHRDQGVDLRLQTQLEEITAADGKATGLKMRDGSTVAADAVLVAVGAKPNVELAQQAGLAMGEGGVLVDASLRTSDPDIYAVGDIAAAEHPLLGTRVRTEHWANALKQPAVAAAGMLGRPGEYAELPYLFTDQYDLGMEYVGHAPSCDRVVFRGNVAGREFLSFWLDGDSRVLAGMNVNVWDVVDDVKGLIRSGNPVDVDRLVDPQWPLADLTTN | not soluble |
| MLANQIKYVILHLTQSIIEYSMANLNCIKAVLAEKGIMSKWLAKTLKKDPATVSKWCNNHSQPDLYTLARIAEVLDVDIHKLICHTKEE | not soluble |
| MSLAKLRPTKTFKPKPPAGLPDRETLLAFLRDAGETGKADIARHFGLKGADRRALREMIRELEAQGALAKRGRKGFAEAGSLPPVGVADVVERDGDGELYVKLTKSDDDVPNVRLAPGKGEAAAGAPGLGDRLLVRFERLETGEFEAKLIKKLGQSAHKILGVIRKHRREVRVEPVDRKSKESLVLDPSVAHDFKEGDLVLAQVGTHGGRYGPKPGKVLEVVGTENDPRAASLIAIHSHGIPTGFSEAAEAEAKTAVEPTLAGREDLRDLPFVTIDPVDARDHDDAVYAHPDEDETNKGGFVVWVAIADVAAYVRPGSALDRDAREKGNSVYFPDRVEPMLPETLSNGLCSLRESENRATLAVRMVFDKSGRKKGHRFVRGLMRSAAKLSYEQAQAAIDGQPDDKAGPLLDPILKPLWDAYRTMKIGRDARSPLAIESDERRIIIKGGEITSITKRASLEAHKLIEEMMVQANVCAAESLEAKRSPLIYRVHDTPSLEKVQNLADFLQTLEIRWSKGEAPQTARFNKLLEETRESPNAAIINEVVLRTQMQAHYSADNIGHFGLNLAKYAHFTSPIRRYADLIVHRGLIRALGLGTDGLTDQDIAQIKDTAEVITHAERRAMAAERDATDRYIAAFLADRVGATFEGRITGVTRFGLFIKLADTGADGLVPVSSLGQEFFVHDDKMHALVGERTGKRWPLGLSVEVKLVEATPVTGGLLFEMLSEPLPPDPKMPRPRLGARRQAAVKPRGGLPKGVRRGKRREGHHHHHH | soluble |
